Assay [1] addresses T1, soluble human FcRn (shFcRn) (human, UniProt P55899 24-297; P61769 21-119).
T1 construct: For crystallography it was expressed in CHOK1SV cells and deglycosylated with PNGaseF; biotinylated for phage selection; also called hFcRn/β2m; FcRn-biotin
In words: SPR (Biacore), immobilized shFcRn, pH 6; data fit column: aggregates/non specific.

In assay [2] the target is T1, soluble human FcRn (shFcRn). In words: SPR (Biacore), Kd pH 7.4 divided by Kd pH 6.0.
Assay [3] shares this target. Briefly: SPR (Biacore), immobilized shFcRn, pH 7.4.
Assay [4] has the same target. In words: SPR (Biacore), pH 6.0. In general terms: In SPR one partner is held on a chip, and binding of the other changes the refractive index at the surface.
Experimental: (§1) SPR analyses: SPR analyses were conducted using a Biacore 3000 or T100 instrument. Research-grade CMS sensor chips and all coupling reagents for immobilization were purchased from Biacore. All proteins were cross-linked to the dextran surface of a CM5 sensor chip by standard amine coupling chemistry as recommended by Biacore. […] Binding experiments were performed at pH 6.0 or 7.4 using 50 mM phosphate, 100 mM sodium chloride and 0.01% surfactant P20. […] Bound albumin protein was then allowed to dissociate from the chip for 5 minutes with running buffer. Any remaining albumin was removed from the chip with a 60 second injection (2 cycles) of pH 8.0 Tris-HCl regeneration buffer (1 M Tris pH 8.0) at 25 μL/min flow rate. The binding responses recorded near the end of the association phase were plotted as a function of concentration. Equilibrium dissociation constants (KD), were derived from sensorgrams using the 1:1 binding model of BlAevaluation software 4.1.
For assay [5] the target is unchanged. In words: SPR (Biacore), immobilized shFcRn, pH 6, steady-state fit.
The target is the same in assay [6]. Briefly: SPR (Biacore), pH 7.4.
Experimental: as §1
For assay [7] the target is unchanged. Briefly: method not stated in the sentence (Example 5, description of peptides); approximate KD in the Example 5 text, pH and method not stated.
Assay [8] has the same target. Briefly: phage display hit; X-ray crystallography.
The target is the same in assay [9]. In words: SPR (Biacore), immobilized shFcRn, pH 6, steady-state fit; pH 6; first of two values in the cell, marked *; immobilized shFcRn.
The target is the same in assay [10]. In words: SPR (Biacore), pH 6.0; pH 6.0.
The target is the same in assay [11]. In words: SPR (Biacore), immobilized shFcRn, pH 7.4. This is another data set of the same source.
For assay [12] the target is unchanged. In words: SPR (Biacore), Kd pH 7.4 divided by Kd pH 6.0. This is another data set of the same source.
Assay [13] has the same target. In words: SPR (Biacore), immobilized shFcRn, pH 6, steady-state fit. The source holds these as a separate data set.
Assay [14] has the same target. Briefly: SPR (Biacore), immobilized shFcRn, pH 6, 2 site fit.
For assay [15] the target is unchanged. In words: SPR (Biacore), immobilized shFcRn, pH 6, fit 'ss'.

“And” between values parts separate entries of the source, which are not always exact repeats. Identical values can stand only once. Like-named read-outs stand apart in the source and are kept apart here. Bridge positions count the residues as written; N and C are the ends.

T1 sequence (P55899 24-297 limits assumed, chain 1 of 2): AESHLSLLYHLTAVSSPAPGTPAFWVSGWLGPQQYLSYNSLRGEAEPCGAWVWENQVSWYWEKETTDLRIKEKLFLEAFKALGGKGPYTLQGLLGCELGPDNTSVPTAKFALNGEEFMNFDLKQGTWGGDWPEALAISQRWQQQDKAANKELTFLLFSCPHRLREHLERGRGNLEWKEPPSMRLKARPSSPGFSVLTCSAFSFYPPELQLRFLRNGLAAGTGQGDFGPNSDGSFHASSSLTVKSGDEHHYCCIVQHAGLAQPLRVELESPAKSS
T1 sequence (P61769 21-119 limits assumed, chain 2 of 2): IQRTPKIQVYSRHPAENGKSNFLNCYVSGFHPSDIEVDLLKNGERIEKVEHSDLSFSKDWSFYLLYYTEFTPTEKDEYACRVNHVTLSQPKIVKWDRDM

B1: SYN1559 (peptide)
peptide: Ac-VMHAFWDEEFRAEYV-NH2
In the case of B1, the binding result in assay [1] is given as “no binding”.

B2: SYN1383 (peptide)
peptide: Ac-VMHCFWDEEFRCEYV-NH2
modifications: disulfide 4-12 (inferred)
notes: Truncated and SAR-optimized analog of SYN514
Usually Kd stands for the equilibrium constant for the complex coming apart. As for B2, the “Kd Ratio 7.4/6.0” value in assay [2] came to 34. For the same molecule, the dissociation constant Kd in assay [3] worked out at 1100 nM; in assay [4], 32 nM; in [5], 32 nM; in assay [6] it was 1100 nM.

B3: SYN1327 (peptide)
peptide: RFXTGHFGXLYPC
modifications: N-terminal acetyl; C-terminal amide; Pen (L-penicillamine) at 3; Sar (sarcosine) at 9; NMeLeu (L-N-methylleucine) at 10
On to B3, for which the Kd in assay [7] was roughly 25 nM; in assay [4], 31 nM; in assay [6], 170 nM.

B4: SYN514 (peptide)
peptide: Ac-AGVMHCFWDEEFKCDQGGTGGGK-NH2
modifications: disulfide 6-14 (inferred)
As to B4, the binding result in assay [8] was “binds”.

B5: SYN1536 (peptide)
peptide: Ac-VMKCWWDEEFLCRAF-NH2
modifications: disulfide 4-12 (inferred)
On to B5, for which the “Kd Ratio 7.4/6.0” value in [2] was found to be 61. The Kd in assay [3] turned out to be 1100 nM; in [5], 18 nM; in assay [9], 31 nM.

B6: SYN571 (peptide)
peptide: Ac-AGRYFCTKWKHGWCEEVGTGGGK-NH2
modifications: disulfide 6-14 (inferred)
In the case of B6, the Kd is 500 nM in [10]; 13100 nM in [11]; 13100 nM in [6]; 450 nM and 500 nM in assay [13]. Besides, the “Kd Ratio 7.4/6.0” value in assay [12] was 29.

B7: SYN515 (peptide)
peptide: Ac-AGYMTCKWDDGFSCEYVGTGGGK-NH2
modifications: disulfide 6-14 (inferred)
On to B7, for which, in assay [2], the “Kd Ratio 7.4/6.0” value is 78. Further, the figures for the Kd in assay [14] and in assay [3] were 230 nM and 18000 nM, respectively.

B8: SYN1145 (peptide)
peptide: Ac-YATCKWDDGFSCEYV-NH2
modifications: disulfide 4-12 (inferred)
Take B8: binding in assay [15] was characterised by a dissociation constant (Kd) of 57000 nM. In other words, the double-digit micromolar range.

B9: SYN1147 (peptide)
peptide: Ac-YMTCAWDDGFSCEYV-NH2
modifications: disulfide 4-12 (inferred)
As for B9, the “Kd Ratio 7.4/6.0” value in [2] was found to be 56. Moreover, the Kd in assay [14] came to 470 nM; in assay [3], 27000 nM; in assay [5], 480 nM.

(Values after patent publication US20170209529A1 (BRIGHAM AND WOMEN S HOSPITAL, published 2017).)
